From PMC10470551 (mBio, 2023)

Tests used:
CsTAL = target: T1, CsTAL (Clostridium scatologenes, UniProt A0A0E3M5J5); assay: coupled assays (PfHBDH or CaHAD), NADH at […] nm; format: biochemical; conditions: 50 mM Tris-HCl pH 7.5, room temperature
T1 construct: gene CSCA_1088; recombinant, pET-28a(+), N-terminal His6 tag, E. coli BL21(DE3), Ni-NTA
T1 sequence (A0A0E3M5J5 1-281): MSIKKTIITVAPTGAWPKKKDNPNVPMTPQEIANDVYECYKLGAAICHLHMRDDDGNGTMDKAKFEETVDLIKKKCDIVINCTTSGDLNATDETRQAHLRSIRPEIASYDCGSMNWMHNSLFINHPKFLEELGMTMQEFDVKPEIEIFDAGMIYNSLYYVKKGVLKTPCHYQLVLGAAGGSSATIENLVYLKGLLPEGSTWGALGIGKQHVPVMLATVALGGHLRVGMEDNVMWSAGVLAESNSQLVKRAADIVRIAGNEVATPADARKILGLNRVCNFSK

purified protein [1] = substrate: CC(=O)CC(=O)CC(=O)O; assay: purified protein; format: biochemical, Clostridium scatologenes; conditions: 1.0 mM NADPH, 50 mM Tris-HCl pH 7.5, room temperature
purified protein [2] = substrate: NC(=O)C1=CN([C@@H]2O[C@H](COP(=O)(O)OP(=O)(O)OC[C@H]3O[C@@H](n4cnc5c(N)ncnc54)[C@H](O)[C@@H]3O)[C@@H](O)[C@H]2O)C=CC1; assay: purified protein; format: biochemical, Clostridium scatologenes; conditions: 2.0 mM triacetate (saturating), 50 mM Tris-HCl pH 7.5, room temperature
purified protein [3] = substrate: CC(=O)CC(=O)O; assay: purified protein; format: biochemical, Clostridium scatologenes; conditions: 1.0 mM NADPH, 50 mM Tris-HCl pH 7.5, room temperature
purified protein [4] = substrate: NC(=O)C1=CN([C@@H]2O[C@H](COP(=O)(O)OP(=O)(O)OC[C@H]3O[C@@H](n4cnc5c(N)ncnc54)[C@H](OP(=O)(O)O)[C@@H]3O)[C@@H](O)[C@H]2O)C=CC1; assay: purified protein; format: biochemical, Clostridium scatologenes; conditions: 50 mM Tris-HCl pH 7.5, room temperature
purified protein [5] = substrate: O=C1CC(=O)CC(O)C1; assay: purified protein; format: biochemical, Clostridium scatologenes; conditions: 2 mM Mn2+, 50 mM Tris-HCl pH 7.5, room temperature
purified protein [6] = substrate: Oc1cc(O)cc(O)c1; assay: purified protein; conditions: co-substrate NADPH, 50 mM Tris-HCl pH 7.5, room temperature

For CC(=O)SCCNC(=O)CCNC(=O)[C@H](O)C(C)(C)COP(=O)(O)OP(=O)(O)OC[C@H]1O[C@@H](n2cnc3c(N)ncnc32)[C@H](O)[C@@H]1OP(=O)(O)O [acetyl-CoA], the “coupled assays (PfHBDH or CaHAD), NADH at 340 nm” value (CsTAL; co-substrate triacetate) was “Incubation of CsTAL with triacetate and acetyl-CoA resulted in the formation of acetoacetate and acetoacetyl-CoA”.

For CC(=O)CC(=O)CC(=O)O [TAA, 3,5-dioxohexanoate], the “coupled assays (PfHBDH or CaHAD), NADH at 340 nm” value (CsTAL; co-substrate acetyl-CoA) was “Incubation of CsTAL with triacetate and acetyl-CoA resulted in the formation of acetoacetate and acetoacetyl-CoA”.

B1: CsTfD (Clostridium scatologenes) (protein)
chain: MGSIIKNITVFGPGMMGSGIAQVFAGCKDSHVTVFIREKFEYECIDKIKGNLQVMKEKGIVTDADIAELFSRITLTEDMKAATKDADFIIECIPENMELKQNLFKNLEDLCREDTIFATNTSVMSITEISEKSKLKTRIVGTHFWNPPYLIPLVEVVKSDYTSEEVMNKTMELLKTVKKHPIRVNKDVPGFVANRLQHALWREAISIVENGIADAKTVDEAVKYSFGLRLPHLGPIENADMVGTDLTLSIHDYILKHLDKSIEAAPIVRKMVEAGELGFKSGKGFQEWTPEQAKASNESLREYLLKVLYGK
notes: recombinant, codon-optimized synthetic gene, pET-28a(+), N-terminal His6 tag, E. coli BL21(DE3), Ni-NTA
B1 gave a Km (purified protein [1]) of 550 µM, a Km (purified protein [2]) of 130 µM and a Km (purified protein [3]) of 3690 µM. For the same molecule, the Km (purified protein [4]; 2.0 mM triacetate (saturating)) was 1700 µM.

B2: CsDPGC (Clostridium scatologenes) (protein)
chain: MGKKVYVDLTHPFSADIPRWPYFVKPVIDSMHSLAKGGVLTQRIDCVQHTGTHCDAPRHVMETEFNGKRARYTHEMPVDAYMGDAVCLEIKAGRWELITAAHLEDACKRANIKPEELEGMVVCLNTGMHRKFDDSKEYYHYSCGTGVEAGKWFVKYKVKCVAMDMQALDHPLHTAMGNNGATRLNLLGASGKPITEEYKEQFGEEAYAEFDKDEYIRIHGKEAYDAKFGDLEEIGCWGTWEPCHKEMLGHGIVGVENLGGDLDKVSGKRFRFLCLPIRWYMGDGSMVRCVAEIDEDNVNKDVADRVYTYGGF
notes: recombinant, pET-28a(+), N-terminal His6 tag, E. coli BL21(DE3), Ni-NTA; mostly apo as purified, Mn2+ added
Molecule B2 has a Km (purified protein [5]) of 190 ± 40 µM and a kcat (purified protein [5]) of 1.04 ± 0.10 s⁻¹.

B3: CsPGR (Clostridium scatologenes) (protein)
chain: MVDKKLINNLFDVKGKVALLTGATGALGKAVAFGYGQAGMKVFITGRSDDKCKALCNELKVDGIECGYSIGDPAIEADVIKIVDDCVAKFGEINVLLTAAGYNHPQPIVEQDLTEWQKIMNSDVQGTWLFCKYVGQKMIDQGKGGKVILVSSARSKMGMAGYTGYCTAKAGIDLMAQSLACEWTAKYGINVNTINPTVFRSDLTEWMFDPESAVYKNFLRRLPIGRLGEPEDFVGPCIFLASSASDFMTGANVATEGGYWAN
notes: recombinant, pET-28a(+), N-terminal His6 tag, E. coli BL21(DE3), Ni-NTA
Molecule B3 has a Km (purified protein [6]) of 300 µM, a kcat (purified protein [6]) of 22.4 to 25.3 s⁻¹ and a Km (purified protein [4]; co-substrate phloroglucinol) of 210 µM. It also gave a kcat (purified protein [4]; co-substrate phloroglucinol) of 22.4 to 25.3 s⁻¹.
